Results: patent US20210301349A1, “COMPOSITIONS AND METHODS FOR TREATING A TUMOR SUPPRESSOR DEFICIENT CANCER” (BETH ISRAEL DEACONESS MEDICAL CENTER, INC., priority 2016, published 2021)

B1: CXCL5: recombinant mouse CXCL5 (BioLegend #573302), chemokine (protein, UniProt P50228 41-132, looked up)
C-X-C motif chemokine 5: APSSVIAATELRCVCLTVTPKINPKLIANLEVIPAGPQCPTVEVIAKLKNQKEVCLDPEAPVIKKIIQKILGSDKKKAKRNALAVERTASVQ
B2: CXCL17: recombinant mouse CXCL17 (BioLegend #585402), chemokine (protein, UniProt Q5UW37 23-119, looked up)
C-X-C motif chemokine 17: SPNPGVARSHGDQHLAPRRWLLEGGQECECKDWFLQAPKRKATAVLGPPRKQCPCDHVKGREKKNRHQKHHRKSQRPSRACQQFLKRCHLASFALPL

What was measured:
prostate cancer = details: phase III clinical trial in prostate cancer; cited from earlier work
[1] = test system: whole bone marrow (BM) mouse cells and Gr1+ cells; assay: 4 day culture of bone marrow and Gr1+ cells in GM-CSF, IL-6 medium plus recombinant chemokine; type: cell-based; details: 4 days culture with IL6 and GM-CSF, recombinant chemokine 200 nM
Description: (§1) Gr1+ cells and monocytes were isolated from the bone marrow (tibias and femurs) of C57BL/6 wild type, 3 months old mice using the MACS Myltenyi Biotec Cell Isolation system according to the manufacturer's instruction. For monocytes isolation the Monocyte Isolation Kit (BM) (Miltenyi 130-100-629) was used, whereas Gr1 positive cells were isolated using the antibody Anti-Gr-1-Biotin, clone RB6-8C5 (Miltenyi 130-101-894). Red blood cells were lysed with the ACK lysis buffer (ThermoFisher Scientific A1049201). Total bone marrow cells and Gr1+ cells were cultured for 4 days. Briefly, 40 ng/ml GM-CSF (PeproTech #315-03) and 40 ng/ml IL-6 (PeproTech #216-16) were added to the control medium RPMI 1640 (ThermoFisher Scientific 11875-093), supplemented with penicillin-streptomycin, 10% FBS, 10 mM HEPES, 20 μM 2-Mercaptoethanol. Either recombinant mouse CXCL5 (BioLegend #573302) or recombinant mouse CXCL17 (BioLegend #585402) was added at the beginning of the experiment (200 nM). For the migration assay 2.5×10^5 MACS sorted cells were resuspended in 100 μL of either RPMI 1640 control medium or organoid complete medium and placed on the upper well of the transwell system (5 μm, Corning #160241). The migration assay with recombinant proteins was performed by adding to the bottom well 600 μL of RMPI1640 control medium supplemented with the indicated amount of either CXCL5 or CXCL17. The migration assay with organoid conditioned medium was performed by adding to the bottom well 600 μL of medium collected over 5 days of culture of prostate organoids with the indicated genotype. The migration of cells was quantified by flow cytometry, 15 seconds acquisition time, using BD LSR II flow cytometer.
For Flow Cytometry, spleen and lymph node single cell suspensions were prepared by mashing the tissue in 2% FBS/PBS. Tumor and control prostate tissue (from anterior lobes) single cell suspension was prepared by mincing the tumor and digestion with Collagenase Type I (Life Technologies #17018029) in 10% DMEM (GIBCO) for 1 hr at 37° C. Cell suspensions were passed through […] cell strainers to obtain single cell suspensions. Blood samples and single cell suspensions were re-suspended in 1-2 ml of ACK red cell lysis buffer (GIBCO) and lysed on ice for 1 minute. Cell suspensions were then washed in 2% FBS/PBS, centrifuged and re-suspended in 0.5-1 ml of 2% FBS/PBS. […] All staining mixtures were analyzed on a BD LSR II flow cytometer (Becton Dickinson). Resulting profiles were further processed and analyzed using the FlowJo 8.7 software.
Microarray analysis and gene set enrichment analysis on mouse tumor tissue were conducted and analyzed as previously described by Palucka, A. K. et al. (Palucka, A. K. et al. Cell 164, 1233-1247 (2016)). […]

[2] = test system: Gr1+ cells isolated from the bone marrow of healthy mice; assay: Transwell migration assay with recombinant proteins, Gr1+ cells; type: cell-based, mouse; details: increasing concentration of recombinant protein in bottom well
Description: as §1, with “The migration assay with recombinant proteins was performed by adding to the bottom well 600 μL of RMPI1640 control medium supplemented with the indicated amount of either CXCL5 or CXCL17. The migration assay with organoid conditioned medium was performed by adding to the bottom well 600 μL of medium collected over 5 days of culture of prostate organoids with the indicated genotype.” left out

[3] = test system: monocytes isolated from the bone marrow of healthy mice; assay: Transwell migration assay with recombinant proteins, monocytes; type: cell-based, mouse; details: increasing concentration of recombinant protein in bottom well
Description: as §1, with “The migration assay with recombinant proteins was performed by adding to the bottom well 600 μL of RMPI1640 control medium supplemented with the indicated amount of either CXCL5 or CXCL17. The migration assay with organoid conditioned medium was performed by adding to the bottom well 600 μL of medium collected over 5 days of culture of prostate organoids with the indicated genotype.” left out

Row | Molecule | survival benefit (prostate cancer) | expression of the Ly6C and Ly6G markers and expression profile of the genes tested [1] | expression of the Ly6C and Ly6G markers and expression profile of the genes tested ([1]; listed as recombinant CXCL5) | migration of Gr1+ cells [2] | expression of the Ly6C and Ly6G markers and expression profile of the genes tested ([1]; listed as recombinant CXCL17) | migration of monocytes (Ly6G−/Ly6C^hi cells) [3]
1 | COc1cccc2c1c(O)c(C(=O)N(C)c1ccc(C(F)(F)F)cc1)c(=O)n2C [Tasquinimod] | failed to show a clear survival benefit |  |  |  |  | 
2 | B1 |  | did not observe any significant difference | did not show significant changes | strongly induced the migration |  | 
3 | B2 |  | did not observe any significant difference |  |  | did not show significant changes | chemoattractants
